According to article PMC4488944:

Key:
Assay in all cases: fluorescence polarisation
[1] = biological target: fluorescent peptide corresponding to the SH3 binding motif of FraC (Anabaena sp. strain PCC 7120)
[2] = biological target: fluorescent peptide corresponding to the SH3 binding motif of SepJ (Anabaena sp. strain PCC 7120)
[3] = biological target: SepJ peptide bearing proline-to-serine substitutions (Anabaena sp. strain PCC 7120)

## His-tagged SjcF1 (All1861 without transmembrane domain) (domain or fragment)
[1]
  Kd: 12 µM
[2]
  Kd: 39 µM
[3]
  Kd: > 2000 µM
